Data: article PMC12157784, “Photoelectrochemical Biosensor Based on 1D In2O3 Tube Decorated with 2D ZnIn2S4 Nanosheets for Sensitive PSA Detection”

Biological target: prostate specific antigen (PSA) (UniProt P07288 25-261)
Test: photoelectrochemical aptasensor (photocurrent decrease); PBS pH 7.4, aptamer immobilised on FTO/In2O3-ZnIn2S4, BSA blocked; linear 0.001-50 ng/mL, LOD 0.00037 ng/mL (not a Kd); PSA incubated 30 min at room temperature on aptamer electrode; 0.01 M PBS pH 7.4 as incubation/wash buffer; photocurrent read in 0.1 M ascorbic acid

prostate specific antigen (PSA), sequence (P07288 25-261): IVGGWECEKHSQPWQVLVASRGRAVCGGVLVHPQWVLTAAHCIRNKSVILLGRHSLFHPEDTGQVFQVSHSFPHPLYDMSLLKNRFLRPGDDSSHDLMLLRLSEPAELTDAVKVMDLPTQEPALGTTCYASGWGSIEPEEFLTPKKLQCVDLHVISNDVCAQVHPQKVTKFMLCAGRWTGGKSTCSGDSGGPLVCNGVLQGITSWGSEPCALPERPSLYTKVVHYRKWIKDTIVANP

ATTAAAGCTCGCCATCAAATAGC (ssDNA, 5'-NH2-(CH2)6) [PSA aptamer]
binding result: binds
